In US20030120038A1 (MERCK, published 2003):
Values belong to the binder of their own block, whether it stands above or below them.

What was measured:
[1] = biological target: T1, sVEGF-RI, natural soluble form of the FLT VEGF receptor, expressed by baculovirus in Sf9 insect cells (human, UniProt P17948 27-656); assay: 96 well plate assay, sVEGF-RI absorbed to the plate, various amounts of [125I]VEGF, Scatchard analysis
T1 construct: also called sFLT; sFlt
Description: (§1) Briefly, sVEGF-RI, 50 to […] partially purified by Mono Q chromatography (Pharmacia), was diluted to 10 ml in 25 mM TRIS, pH 7.4, 100 mM NaCl, 20 mM NH₄HCO_{3.} Aliquots ([…]) were absorbed to the surface of a 96 well plate for 18 hours at 4° C., the plates were then washed twice with blocking buffer (DME, 25 mM HEPES, pH 7.5, 0.5% gelatin) and the nonspecific sites were blocked in the same buffer for 6 hours at 4° C. The plate was then washed twice in binding buffer. […] The wells were washed three times with […] of binding buffer, the bound protein was solubilized with […] of 1% SDS, 0.5% BSA and counted in a g counter. The results, shown in FIG. 7, were analyzed by the method of Scatchard [Scatchard, G., (1949) Ann. N.Y. Acad. Sci., 51, pp. 660-672].

[2] = biological target: T1, sVEGF-RI, natural soluble form of the …; assay: 96 well plate competition, immobilized sFLT, tracer [125I]PlGF, competitor unlabeled VEGF
Description: as §1

[3] = biological target: T1, sVEGF-RI, natural soluble form of the …; assay: 96 well plate competition, immobilized sFLT; reference is PlGF displacing [125I]PlGF
Description: as §1

[4] = biological target: T2, Ex-KDR, purified extracellular domain of the KDR VEGF receptor (UniProt P35968 20-764, limits assumed); assay: covalent crosslinking (BS3) of purified Ex-KDR with [125I]PlGF, SDS/PAGE
T2 construct: extracellular domain; It may be the same construct; also called extracellular region of KDR
T2 sequence (P35968 20-764 limits assumed): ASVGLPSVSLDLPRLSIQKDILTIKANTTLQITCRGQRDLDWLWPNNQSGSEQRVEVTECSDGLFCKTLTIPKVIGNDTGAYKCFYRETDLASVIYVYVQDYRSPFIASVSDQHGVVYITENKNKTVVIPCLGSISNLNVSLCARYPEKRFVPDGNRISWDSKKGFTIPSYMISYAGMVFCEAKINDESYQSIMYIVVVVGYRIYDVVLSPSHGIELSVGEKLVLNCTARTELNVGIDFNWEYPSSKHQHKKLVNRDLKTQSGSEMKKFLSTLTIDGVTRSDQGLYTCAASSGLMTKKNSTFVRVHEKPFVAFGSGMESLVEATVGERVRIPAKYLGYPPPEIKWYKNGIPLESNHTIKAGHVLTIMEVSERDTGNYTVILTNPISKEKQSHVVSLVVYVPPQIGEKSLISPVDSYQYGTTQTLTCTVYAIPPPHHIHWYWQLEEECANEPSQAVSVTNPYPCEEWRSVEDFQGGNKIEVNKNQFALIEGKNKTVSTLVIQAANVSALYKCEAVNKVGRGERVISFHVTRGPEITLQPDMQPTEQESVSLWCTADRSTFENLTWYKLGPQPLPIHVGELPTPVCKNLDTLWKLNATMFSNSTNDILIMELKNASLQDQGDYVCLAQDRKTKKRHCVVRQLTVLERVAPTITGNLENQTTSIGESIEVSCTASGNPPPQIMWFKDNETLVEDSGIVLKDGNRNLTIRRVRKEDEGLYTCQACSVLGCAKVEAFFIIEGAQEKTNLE
Description: The reactions were then crosslinked with 1 mM BS³ at 25° C. for 15 min followed by the addition of boiling Laemmli sample buffer (10). The crosslinked products were analyzed by SDS/7.5% PAGE and the complexes were visualized using a Phosphohnager (Molecular Dynamics, Sunnyvale, Calif.).
The reactions were then crosslinked with 1 mM BS³ at 25° C. for 15 min followed by the addition of boiling Laemmli sample buffer. The crosslinked products were analyzed by SDS/7.5% PAGE and the complexes were visualized using a Phosphohnager (Molecular Dynamics, Sunnyvale, Calif.).

[5] = biological target: T1, sVEGF-RI, natural soluble form of the …; assay: 96 well plate competition, immobilized sFLT, tracer [125I]VEGF, competitor unlabeled PlGF
Description: as §1

[6] = biological target: T1, sVEGF-RI, natural soluble form of the …; assay: 96 well plate competition, immobilized sFLT, tracer [125I]PlGF, competitor unlabeled PlGF
Description: as §1

T1 sequence (P17948 other isoform, or with tags, fused parts or gaps): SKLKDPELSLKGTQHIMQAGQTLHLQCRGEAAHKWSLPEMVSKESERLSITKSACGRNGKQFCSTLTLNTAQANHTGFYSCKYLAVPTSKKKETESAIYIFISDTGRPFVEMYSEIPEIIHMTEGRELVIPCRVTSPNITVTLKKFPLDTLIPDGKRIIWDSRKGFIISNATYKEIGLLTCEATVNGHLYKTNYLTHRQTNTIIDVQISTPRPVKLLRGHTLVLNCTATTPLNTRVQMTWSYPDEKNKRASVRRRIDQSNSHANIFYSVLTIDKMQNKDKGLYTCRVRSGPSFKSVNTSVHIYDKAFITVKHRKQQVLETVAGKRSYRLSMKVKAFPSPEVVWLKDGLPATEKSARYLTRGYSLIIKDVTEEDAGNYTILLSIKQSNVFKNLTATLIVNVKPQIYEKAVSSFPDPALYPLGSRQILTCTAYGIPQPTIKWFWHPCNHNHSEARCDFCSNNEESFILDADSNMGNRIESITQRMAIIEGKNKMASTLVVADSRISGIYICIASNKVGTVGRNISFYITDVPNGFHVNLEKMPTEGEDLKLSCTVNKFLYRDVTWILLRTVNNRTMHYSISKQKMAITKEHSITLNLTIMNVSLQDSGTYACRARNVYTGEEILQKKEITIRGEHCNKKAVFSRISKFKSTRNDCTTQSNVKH

Kd [1]: ~0.02 nM
IC50 [2]: 0.01 nM
B1: human recombinant vascular endothelial cell growth factor (VEGF) (ligand, UniProt P15692-4 27-191, looked up)
chain: APMAEGGGQNHHEVVKFMDVYQRSYCHPIETLVDIFQEYPDEIEYIFKPSCVPLMRCGGCCNDEGLECVPTEESNITMQIMRIKPHQGQHIGEMSFLQHNKCECRPKKDRARQENPCGPCSERRKHLFVQDPQTCKCSCKNTDSRCKARQLELNERTCRCDKPRR
modifications: 125I label (chloramine T method) in the tracer form
notes: also called unlabeled VEGF

fold higher concentration to displace 50% of [125I]VEGF than of [125I]PlGF [3]: ~5 fold
binding result [4]: no binding
IC50 [5]: ~0.55 nM
IC50 [6]: ~0.11 nM
B2: recombinant human PlGF (ligand, UniProt P49763-2 19-149, looked up)
chain: LPAVPPQQWALSAGNGSSEVEVVPFQEVWGRSYCRALERLVDVVSEYPSEVEHMFSPSCVSLLRCTGCCGDENLHCVPVETANVTMQLLKIRSGDRPSYVELTFSQHVRCECRPLREKMKPERCGDAVPRR
modifications: 125I label (chloramine T method) in the tracer form
notes: also called PIGF
